# Data from paper PMC3963500.
# Molecular target: PDGF-BB (UniProt P01127 82-190)
# Assay: microcantilever deflection
# Sequence of PDGF-BB (P01127 82-190): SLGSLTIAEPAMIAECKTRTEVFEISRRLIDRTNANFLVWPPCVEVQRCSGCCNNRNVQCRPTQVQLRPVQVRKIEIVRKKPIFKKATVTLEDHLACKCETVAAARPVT
binder,measurement,value
"CACAGGCTACGGCACGTAGAGCATCACCATGATCCTGTG (structured_DNA, thiol (HS-aptamer; printed as 3'T after the sequence), immobilized on Au-coated cantilever) [PDGF aptamer (thiolated)]",binding result,binds
